Data published in PMC6003574, “Selection of a novel CD19 aptamer for targeted delivery of doxorubicin to lymphoma cells”.

Target: CD19 extracellular domain (Homo sapiens, UniProt P15391 20-291)
Experiment: flow cytometry on protein-coated beads; PBS, 37 C; PBS, 37 C, 30 min, three PBS washes; bead flow cytometry, random ssDNA pool as background; pH not stated
Conditions: protein: commercial; label: FITC (flow cytometry); Cy3 (confocal); FITC at 5' end in selection primer

Chain of CD19 extracellular domain (P15391 20-291): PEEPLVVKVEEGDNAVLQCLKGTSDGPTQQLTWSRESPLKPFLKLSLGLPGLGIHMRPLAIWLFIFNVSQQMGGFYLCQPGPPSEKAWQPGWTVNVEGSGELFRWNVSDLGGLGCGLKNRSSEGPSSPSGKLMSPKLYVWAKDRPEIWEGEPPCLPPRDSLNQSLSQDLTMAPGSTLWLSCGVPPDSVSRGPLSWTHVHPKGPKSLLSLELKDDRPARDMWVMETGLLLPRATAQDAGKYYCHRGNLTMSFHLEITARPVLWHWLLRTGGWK

B1: LC1 (ssDNA)
DNA: TGCGTGTGTAGTGTGTCTGTTCTCCTTTTTTTGGTTGCTGCTCTTAGGGATTTGGGCGG
  Kd: 85.4 nM
